Earlier results, collected in patent US11173109B2, “Compositions in the form of an injectable aqueous solution comprising amylin, an amylin receptor agonist or an amylin analog and a co-polyamino acid” (ADOCIA, priority 2017, dated 2021).
No end group written: not given here.

Details: neutral pH

## amylin: peptide of 37 amino acids which is co-stored and co-secreted with insulin (KCNTATCATQRLANFLVHSSNNFGAILSSTNVGSNTY; not fully specified (C-terminus, bridges); cysteine pairing not given here; UniProt P10997 34-70, looked up)
  time for which amylin is stable: less than one
